Data: article PMC12102759 (2025)

B1: PIP5K1C peptide 642-657 (Phosphatidylinositol 4-phosphate 5-kinase type-1 gamma), 16-mer library wild type / TLN1 PTB (TLN1 Phosphotyrosine-binding (PTB) domain, residues 309-401) (parent complex)
chain 1: TDERSWVYSPLHYSAQ
chain 2: GVSFFLVKEKMKGKNKLVPRLLGITKECVMRVDEKTKEVIQEWNLTNIKRWAASPKSFTLDFGDYQDGYYSVQTTEGEQIAQLIAGYIDIILK
B2: CBL peptide 540-555 (E3 ubiquitin-protein ligase CBL), 16-mer library wild type / YES SH3 (YES1 SH3 domain, residues 90-152) (parent complex)
chain 1: RDLPPPPPPDRPYSVG
chain 2: not shown

Variants of: B1
Test: proteomic peptide phage display deep mutational scan (ProP-PD DMS): M13 P8 16-mer library selected against immobilised GST-tagged bait for four days (rounds), NGS of the eluted pools per day and pseudo-replica; bait immobilised on MaxiSorp plates (10 µg), library pre-cleared on GST, 2 h binding at 4 °C, five washes; one round per day, days 1-4; value from days 2 and 3

First: chain 1 D2G
Second: chain 1 D2A
The screen value of the first is lower: 0.00241 average fractional NGS count over selection days 2 and 3 (reads of this peptide / all reads for the bait, averaged over … for the first, 0.0142 average fractional NGS count over selection days 2 and 3 (reads of this peptide / all reads for the bait, averaged over … for the second.

Going from chain 1 T1I to chain 1 T1D, the screen value rises from 0.000851 average fractional NGS count over selection days 2 and 3 (reads of this peptide / all reads for the bait, averaged over … to 0.00201 average fractional NGS count over selection days 2 and 3 (reads of this peptide / all reads for the bait, averaged over ….

First: chain 1 W6F
Second: chain 1 S5L
The screen value of the first is lower: 0.000288 average fractional NGS count over selection days 2 and 3 (reads of this peptide / all reads for the bait, averaged over … for the first, 0.00637 average fractional NGS count over selection days 2 and 3 (reads of this peptide / all reads for the bait, averaged over … for the second.

Going from chain 1 S5Q to chain 1 S5G, the screen value falls from 0.000811 average fractional NGS count over selection days 2 and 3 (reads of this peptide / all reads for the bait, averaged over … to 0.000211 average fractional NGS count over selection days 2 and 3 (reads of this peptide / all reads for the bait, averaged over ….

Going from chain 1 S5H to chain 1 V7F, the screen value falls from 0.00161 average fractional NGS count over selection days 2 and 3 (reads of this peptide / all reads for the bait, averaged over … to 0.00058 average fractional NGS count over selection days 2 and 3 (reads of this peptide / all reads for the bait, averaged over ….

First: chain 1 V7A
Second: chain 1 S14M
The screen value of the first is higher: 0.0345 average fractional NGS count over selection days 2 and 3 (reads of this peptide / all reads for the bait, averaged over … for the first, 0.00342 average fractional NGS count over selection days 2 and 3 (reads of this peptide / all reads for the bait, averaged over … for the second.

Compared with chain 1 S14E, chain 1 L11R is higher in screen value: 0.00034 average fractional NGS count over selection days 2 and 3 (reads of this peptide / all reads for the bait, averaged over … for the first, 0.00065 average fractional NGS count over selection days 2 and 3 (reads of this peptide / all reads for the bait, averaged over … for the second.

Compared with chain 1 R4D, chain 1 E3V is lower in screen value: 0.0132 average fractional NGS count over selection days 2 and 3 (reads of this peptide / all reads for the bait, averaged over … for the first, 0.000642 average fractional NGS count over selection days 2 and 3 (reads of this peptide / all reads for the bait, averaged over … for the second.

Variants of: B2
Test: as above

First: chain 1 L3F
Second: chain 1 L3K
The screen value of the first is lower: 9.32e-05 average fractional NGS count over selection days 2 and 3 (reads of this peptide / all reads for the bait, averaged over … for the first, 0.000147 average fractional NGS count over selection days 2 and 3 (reads of this peptide / all reads for the bait, averaged over … for the second.

Going from chain 1 L3S to chain 1 L3W, the screen value rises from 6.99e-05 average fractional NGS count over selection days 2 and 3 (reads of this peptide / all reads for the bait, averaged over … to 0.000182 average fractional NGS count over selection days 2 and 3 (reads of this peptide / all reads for the bait, averaged over ….

Compared with chain 1 L3A, chain 1 L3E is lower in screen value: 0.000233 average fractional NGS count over selection days 2 and 3 (reads of this peptide / all reads for the bait, averaged over … for the first, 5.03e-05 average fractional NGS count over selection days 2 and 3 (reads of this peptide / all reads for the bait, averaged over … for the second.

First: chain 1 L3M
Second: chain 1 D10N
The screen value of the first is higher: 0.00032 average fractional NGS count over selection days 2 and 3 (reads of this peptide / all reads for the bait, averaged over … for the first, 0.000163 average fractional NGS count over selection days 2 and 3 (reads of this peptide / all reads for the bait, averaged over … for the second.

Going from chain 1 D10F to chain 1 D10P, the screen value falls from 0.000931 average fractional NGS count over selection days 2 and 3 (reads of this peptide / all reads for the bait, averaged over … to 0.000173 average fractional NGS count over selection days 2 and 3 (reads of this peptide / all reads for the bait, averaged over ….

First: chain 1 D10E
Second: chain 1 D10M
The screen value of the first is lower: 0.0012 average fractional NGS count over selection days 2 and 3 (reads of this peptide / all reads for the bait, averaged over … for the first, 0.00163 average fractional NGS count over selection days 2 and 3 (reads of this peptide / all reads for the bait, averaged over … for the second.

Going from chain 1 D10V to chain 1 D10I, the screen value falls from 0.000894 average fractional NGS count over selection days 2 and 3 (reads of this peptide / all reads for the bait, averaged over … to 0.000128 average fractional NGS count over selection days 2 and 3 (reads of this peptide / all reads for the bait, averaged over ….

First: chain 1 D10H
Second: chain 1 D10W
The screen value of the first is higher: 0.00429 average fractional NGS count over selection days 2 and 3 (reads of this peptide / all reads for the bait, averaged over … for the first, 0.00158 average fractional NGS count over selection days 2 and 3 (reads of this peptide / all reads for the bait, averaged over … for the second.

First: chain 1 D10K
Second: chain 1 D10A
The screen value of the first is lower: 0.00142 average fractional NGS count over selection days 2 and 3 (reads of this peptide / all reads for the bait, averaged over … for the first, 0.00828 average fractional NGS count over selection days 2 and 3 (reads of this peptide / all reads for the bait, averaged over … for the second.

First: chain 1 S14I
Second: chain 1 S14T
The screen value of the first is lower: 0.00339 average fractional NGS count over selection days 2 and 3 (reads of this peptide / all reads for the bait, averaged over … for the first, 0.0152 average fractional NGS count over selection days 2 and 3 (reads of this peptide / all reads for the bait, averaged over … for the second.

First: chain 1 S14R
Second: chain 1 S14M
The screen value of the first is lower: 6.61e-05 average fractional NGS count over selection days 2 and 3 (reads of this peptide / all reads for the bait, averaged over … for the first, 0.00137 average fractional NGS count over selection days 2 and 3 (reads of this peptide / all reads for the bait, averaged over … for the second.

Compared with chain 1 S14H, chain 1 S14A is higher in screen value: 0.000385 average fractional NGS count over selection days 2 and 3 (reads of this peptide / all reads for the bait, averaged over … for the first, 0.00883 average fractional NGS count over selection days 2 and 3 (reads of this peptide / all reads for the bait, averaged over … for the second.

First: chain 1 S14F
Second: chain 1 S14D
The screen value of the first is higher: 0.0172 average fractional NGS count over selection days 2 and 3 (reads of this peptide / all reads for the bait, averaged over … for the first, 0.000862 average fractional NGS count over selection days 2 and 3 (reads of this peptide / all reads for the bait, averaged over … for the second.

Going from chain 1 S14Y to chain 1 P4I, the screen value falls from 0.00258 average fractional NGS count over selection days 2 and 3 (reads of this peptide / all reads for the bait, averaged over … to 0.000839 average fractional NGS count over selection days 2 and 3 (reads of this peptide / all reads for the bait, averaged over ….

First: chain 1 P4T
Second: chain 1 P4H
The screen value of the first is higher: 0.00019 average fractional NGS count over selection days 2 and 3 (reads of this peptide / all reads for the bait, averaged over … for the first, 8.18e-05 average fractional NGS count over selection days 2 and 3 (reads of this peptide / all reads for the bait, averaged over … for the second.

Going from chain 1 P4L to chain 1 P4E, the screen value falls from 0.000253 average fractional NGS count over selection days 2 and 3 (reads of this peptide / all reads for the bait, averaged over … to 0.000136 average fractional NGS count over selection days 2 and 3 (reads of this peptide / all reads for the bait, averaged over ….

Compared with chain 1 P4Q, chain 1 P4M is higher in screen value: 0.000154 average fractional NGS count over selection days 2 and 3 (reads of this peptide / all reads for the bait, averaged over … for the first, 0.000259 average fractional NGS count over selection days 2 and 3 (reads of this peptide / all reads for the bait, averaged over … for the second.

Going from chain 1 R11T to chain 1 R11H, the screen value falls from 0.00408 average fractional NGS count over selection days 2 and 3 (reads of this peptide / all reads for the bait, averaged over … to 0.000484 average fractional NGS count over selection days 2 and 3 (reads of this peptide / all reads for the bait, averaged over ….

Going from chain 1 R11F to chain 1 R11M, the screen value rises from 0.00146 average fractional NGS count over selection days 2 and 3 (reads of this peptide / all reads for the bait, averaged over … to 0.00776 average fractional NGS count over selection days 2 and 3 (reads of this peptide / all reads for the bait, averaged over ….

First: chain 1 R11D
Second: chain 1 R11S
The screen value of the first is lower: 0.000209 average fractional NGS count over selection days 2 and 3 (reads of this peptide / all reads for the bait, averaged over … for the first, 0.000485 average fractional NGS count over selection days 2 and 3 (reads of this peptide / all reads for the bait, averaged over … for the second.

First: chain 1 R11P
Second: chain 1 R11G
The screen value of the first is lower: 0.00145 average fractional NGS count over selection days 2 and 3 (reads of this peptide / all reads for the bait, averaged over … for the first, 0.00318 average fractional NGS count over selection days 2 and 3 (reads of this peptide / all reads for the bait, averaged over … for the second.

Going from chain 1 R11L to chain 1 R11V, the screen value falls from 0.00999 average fractional NGS count over selection days 2 and 3 (reads of this peptide / all reads for the bait, averaged over … to 0.00622 average fractional NGS count over selection days 2 and 3 (reads of this peptide / all reads for the bait, averaged over ….

Compared with chain 1 R11A, chain 1 R11K is higher in screen value: 8.11e-05 average fractional NGS count over selection days 2 and 3 (reads of this peptide / all reads for the bait, averaged over … for the first, 0.000739 average fractional NGS count over selection days 2 and 3 (reads of this peptide / all reads for the bait, averaged over … for the second.

First: chain 1 P8E
Second: chain 1 P8W
The screen value of the first is lower: 0.00198 average fractional NGS count over selection days 2 and 3 (reads of this peptide / all reads for the bait, averaged over … for the first, 0.00267 average fractional NGS count over selection days 2 and 3 (reads of this peptide / all reads for the bait, averaged over … for the second.

Compared with chain 1 P8K, chain 1 P8F is higher in screen value: 0.000519 average fractional NGS count over selection days 2 and 3 (reads of this peptide / all reads for the bait, averaged over … for the first, 0.00526 average fractional NGS count over selection days 2 and 3 (reads of this peptide / all reads for the bait, averaged over … for the second.

First: chain 1 P8I
Second: chain 1 P8M
The screen value of the first is lower: 0.000285 average fractional NGS count over selection days 2 and 3 (reads of this peptide / all reads for the bait, averaged over … for the first, 0.00164 average fractional NGS count over selection days 2 and 3 (reads of this peptide / all reads for the bait, averaged over … for the second.

Compared with chain 1 P8S, chain 1 P8N is lower in screen value: 0.00243 average fractional NGS count over selection days 2 and 3 (reads of this peptide / all reads for the bait, averaged over … for the first, 0.00013 average fractional NGS count over selection days 2 and 3 (reads of this peptide / all reads for the bait, averaged over … for the second.

Going from chain 1 P8A to chain 1 P8L, the screen value falls from 0.00106 average fractional NGS count over selection days 2 and 3 (reads of this peptide / all reads for the bait, averaged over … to 0.000348 average fractional NGS count over selection days 2 and 3 (reads of this peptide / all reads for the bait, averaged over ….

Compared with chain 1 P8V, chain 1 P6N is lower in screen value: 0.0212 average fractional NGS count over selection days 2 and 3 (reads of this peptide / all reads for the bait, averaged over … for the first, 0.000163 average fractional NGS count over selection days 2 and 3 (reads of this peptide / all reads for the bait, averaged over … for the second.

In the case of chain 1 P6A, the screen value is reported as 0.0119 average fractional NGS count over selection days 2 and 3 (reads of this peptide / all reads for the bait, averaged over ….
